Numbering of substitutions follows the chain as printed.
B1: IL6R-P784/IL6R-L (antibody, human IgG1, kappa)
heavy: QVQLQESGPGLVKPSETLSLTCAVSGHSISHDHAWSWVRQPPGEGLEWIGFISYSGITNYNPSLQGRVTISRDNSKNTLYLQMNSLRAEDTAVYYCARSLARTTAMDYWGEGTLVTVSSASTKGPSVFPLAPSSKSTSGGTAALGCLVKDYFPEPVTVSWNSGALTSGVHTFPAVLQSSGLYSLSSVVTVPSSSLGTQTYICNVNHKPSNTKVDKKVEPKSCDKTHTCPPCPAPDLLGDDSVFLFPPKPKDTLMISRTPEVTCVVVDVSHEDPEVKFNWYVDGVEVHNAKTKPREEQYNSTYRVVSVLTVLHQDWLNGKEYKCKVSNKGLPSSIEKTISKAKGQPREPQVYTLPPSRDELTKNQVSLTCLVKGFYPSDIAVEWESNGQPENNYKTTPPVLDSDGSFFLYSKLTVDKSRWQQGNVFSCSVMHEALHNHYTQKSLSLSP
light: not shown
B2: IL6R-P606/IL6R-L (antibody, human IgG1, kappa)
heavy: B1 heavy with D239G, S241K, V266I, S269A, H270E, P273G, G329A, S332A, S333P
light: not shown
B3: IL6R-P624/IL6R-L (antibody, human IgG1, kappa)
heavy: B1 heavy with L236N, D239G, V266I, S269A, H270E, P273G, G329A, S332A, S333P
light: not shown
B4: IL6R-P611/IL6R-L (antibody, human IgG1, kappa)
heavy: B1 heavy with L236A, V266I, S269A, H270E, P273G, Y298D, G329A, S332R, S333P, P398M
light: not shown
B5: IL6R-P614/IL6R-L (antibody, human IgG1, kappa)
heavy: B1 heavy with L237A, V266I, S269A, H270E, P273G, Y298D, G329A, S332R, S333P, P398M
light: not shown
B6: IL6R-P623/IL6R-L (antibody, human IgG1, kappa)
heavy: B1 heavy with L236H, D239G, V266I, S269A, H270E, P273G, G329A, S332A, S333P
light: not shown
B7: IL6R-P607/IL6R-L (antibody, human IgG1, kappa)
heavy: B1 heavy with S241K, V266I, S269A, H270E, P273G, Y298D, G329A, S332R, S333P, P398M
light: not shown
B8: IL6R-P616/IL6R-L (antibody, human IgG1, kappa)
heavy: B1 heavy with L236A, L237A, D239G, V266I, S269A, H270E, P273G, G329A, S332A, S333P
light: not shown
B9: IL6R-P609/IL6R-L (antibody, human IgG1, kappa)
heavy: B1 heavy with L236A, D239G, V266I, S269A, H270E, P273G, G329A, S332A, S333P
light: not shown
B10: IL6R-P613/IL6R-L (antibody, human IgG1, kappa)
heavy: B1 heavy with L237A, D239G, V266I, S269A, H270E, P273G, G329A, S332A, S333P
light: not shown
B11: IL6R-P617/IL6R-L (antibody, human IgG1, kappa)
heavy: QVQLQESGPGLVKPSETLSLTCAVSGHSISHDHAWSWVRQPPGEGLEWIGFISYSGITNYNPSLQGRVTISRDNSKNTLYLQMNSLRAEDTAVYYCARSLARTTAMDYWGEGTLVTVSSASTKGPSVFPLAPSSKSTSGGTAALGCLVKDYFPEPVTVSWNSGALTSGVHTFPAVLQSSGLYSLSSVVTVPSSSLGTQTYICNVNHKPSNTKVDKKVEPKSCDKTHTCPPCPAPDAAGDDSVFLFPPKPKDTLMISRTPEVTCVVIDVAEEDGEVKFNWYVDGVEVHNAKTKPREEQDNSTYRVVSVLTVLHQDWLNGKEYKCKVSNKALPRPIEKTISKAKGQPREPQVYTLPPSRDELTKNQVSLTCLVKGFYPSDIAVEWESNGQPENNYKTTPMVLDSDGSFFLYSKLTVDKSRWQQGNVFSCSVMHEALHNHYTQKSLSLSP
light: not shown
B12: IL6R-P627/IL6R-L (antibody, human IgG1, kappa)
heavy: B11 heavy with A236L, A237L, G238Q, D239G, D298Y, R332A, M398P
light: not shown
B13: IL6R-P637/IL6R-L (antibody, human IgG1, kappa)
heavy: B11 heavy with A236L, A237L, D239G, A269Y, D298Y, R332A, M398P
light: not shown

The binders below were run against T1, human FcγRIIb extracellular domain with C-terminal His tag (human, UniProt P31994 43-217) (assay: SPR, antibody captured, FcgR analyte).
T1 construct: extracellular domain; also called FcgRIIb
T1 sequence (looked up): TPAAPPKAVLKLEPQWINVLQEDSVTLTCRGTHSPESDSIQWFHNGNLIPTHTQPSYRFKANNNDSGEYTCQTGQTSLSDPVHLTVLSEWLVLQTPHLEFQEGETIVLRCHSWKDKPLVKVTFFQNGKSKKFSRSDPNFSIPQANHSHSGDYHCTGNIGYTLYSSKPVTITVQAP

Binder | Kd [nM]
B1 | 2200

These binders were tested against T2, human FcγRIIa R type extracellular domain with C-terminal His tag (human, UniProt P12318 34-217) (assay: SPR, antibody captured, FcgR analyte).
T2 construct: extracellular domain; also called FcgRIIaR
T2 sequence (looked up): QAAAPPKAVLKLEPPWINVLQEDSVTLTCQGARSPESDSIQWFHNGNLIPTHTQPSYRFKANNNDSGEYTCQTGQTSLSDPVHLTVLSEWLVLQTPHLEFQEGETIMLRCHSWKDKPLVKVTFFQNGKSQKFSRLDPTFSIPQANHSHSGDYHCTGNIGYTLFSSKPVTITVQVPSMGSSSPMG

Binder | Kd [nM]
B1 | 21000

Each binder was assayed against T3, human FcγRIa extracellular domain with C-terminal His tag (human, UniProt P12314 16-292) (assay: SPR, antibody captured, FcgR analyte).
T3 construct: Whole entry named; also called FcgRIa
T3 sequence (P12314 16-292): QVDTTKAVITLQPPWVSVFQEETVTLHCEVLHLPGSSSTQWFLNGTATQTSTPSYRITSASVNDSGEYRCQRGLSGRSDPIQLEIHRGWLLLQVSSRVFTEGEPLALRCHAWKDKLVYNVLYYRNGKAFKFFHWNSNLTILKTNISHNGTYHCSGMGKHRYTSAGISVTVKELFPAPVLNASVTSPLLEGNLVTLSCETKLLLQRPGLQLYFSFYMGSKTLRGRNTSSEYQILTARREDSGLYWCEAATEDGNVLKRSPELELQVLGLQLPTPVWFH

Binder | Kd [nM]
B1 | 88

What follows are binders tested against T4, human FcγRIIIa V type extracellular domain with C-terminal His tag (human, UniProt P08637 17-208) (assay: SPR, KD of IL6R-G1d/IL6R-L divided by KD of variant).
T4 construct: extracellular domain; also called FcgRIIIaV
T4 sequence (P08637 17-208 F176V): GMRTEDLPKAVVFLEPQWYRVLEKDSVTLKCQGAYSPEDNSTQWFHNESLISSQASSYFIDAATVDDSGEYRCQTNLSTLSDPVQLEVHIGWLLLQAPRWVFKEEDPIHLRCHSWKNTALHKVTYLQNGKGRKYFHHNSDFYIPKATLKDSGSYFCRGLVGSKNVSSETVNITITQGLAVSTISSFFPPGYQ

Binder | Relative FcgRIIIaV-binding Activity
B1 | 0.01

These binders were tested against T1, human FcγRIIb extracellular domain with … in the same assay as above.

Binder | Relative FcgRIIb-binding Activity
B1 | 1

What follows are binders tested against T2, human FcγRIIa R type extracellular … in the same assay as above.

Binder | Relative FcgRIIaR-binding Activity
B1 | 0.05

The binders below were run against T5, human FcγRIIa H type extracellular domain with C-terminal His tag (human, UniProt P12318 34-217) in the same assay as above.
T5 construct: extracellular domain; also called FcgRIIaH
T5 sequence (looked up): T2 sequence (looked up) with R134H

Binder | Relative FcgRIIaH-binding Activity
B1 | 0.007

What follows are binders tested against T3, human FcγRIa extracellular domain with … in the same assay as above.

Binder | Relative FcgRIa-binding Activity
B1 | 0.004

These binders were tested against T6, FcgRIIaR (human, UniProt P12318 34-217) (assay: SPR, amount bound per captured antibody).
T6 construct: extracellular domain; also called FcγRIIa R type; FcγRIIa (R type)
T6 sequence (looked up): T2 sequence (looked up)

Binder | Relative FcgRIIaR-binding Activity [IL6R-G1d/IL6R-L=100]
B2 | 4.8
B3 | 67.1
B4 | 107
B5 | 69.5
B6 | 44.7
B7 | 6.1
B8 | 41.8
B9 | 82.6
B10 | 61.2
B11 | 49.2
B12 | 48.5

Each binder was assayed against T7, FcgRIIb (human, UniProt P31994 43-217) (assay: SPR, amount bound per captured antibody).
T7 construct: extracellular domain; also called FcγRIIb
T7 sequence (looked up): T1 sequence (looked up)

Binder | Relative FcgRIIb-binding Activity [IL6R-G1d/IL6R-L=100]
B2 | 7.7
B13 | 55.5
B3 | 173
B4 | 183
B5 | 176
B6 | 152
B7 | 21.8
B8 | 89.2
B9 | 178
B10 | 120
B11 | 158
B12 | 138

From patent publication US20220411483A1 (Chugai, published 2022)
